Experiments:
[1] = target: recombinant soluble human CD4 (human, UniProt P01730); test: ELISA
[2] = target: recombinant soluble rhesus CD4 (Macaca mulatta (rhesus macaque), UniProt P16003); test: ELISA
Chain of recombinant soluble rhesus CD4 (P16003 26-396): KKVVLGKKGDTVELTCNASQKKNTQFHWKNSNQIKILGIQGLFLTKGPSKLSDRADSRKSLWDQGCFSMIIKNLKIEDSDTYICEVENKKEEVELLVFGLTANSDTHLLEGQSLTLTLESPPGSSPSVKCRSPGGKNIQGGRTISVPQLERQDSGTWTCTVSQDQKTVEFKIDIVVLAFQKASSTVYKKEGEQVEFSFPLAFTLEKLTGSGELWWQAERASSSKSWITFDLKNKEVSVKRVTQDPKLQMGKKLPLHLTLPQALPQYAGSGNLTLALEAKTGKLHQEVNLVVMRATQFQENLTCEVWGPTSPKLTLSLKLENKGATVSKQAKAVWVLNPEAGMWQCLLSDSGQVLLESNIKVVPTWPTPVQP

B1: mAb 2D5 (anti-CD4 monoclonal antibody) (antibody, V domains shown)
VH: QVKLQQSGPELKKPGETVKISCKASGYTFTDYSMHWVKQAPGKGLKWLGRINTETGEAKYVDDFMGHLAFSLETSASTAYLQINNLKNEDTATYFCARYDGYSWDAMDYWGQGTSVIVSS
VL: DIMLTQSPASLTVSLGQRATMSCRASQSVSTSRYSYMHWYQEKAGQPPQLLIKYASNLESGVPARFSGSGSGTDFTLNIHPVEAEDTATYYCQHSWEIPYTFGGGTKLEIK
binding result [1]: binds | binding result [2]: binds

Reference: article PMC4562469 (Science translational medicine, 2014)
